We go through five molecules from US20240279318A1 (NANJING LEGEND BIOTECH, published 2024).

Substitutions are numbered along the chain they refer to.

B1: AS179723 scFv-mIgG2aFc (Fc fusion, not shown: a dimerising Fc or GST)
chain: QAGLTQPPSMSGSPRQSVTISCTGSSNNIGGNYVNWYQHLPGTAPKLLIYDNKNRPSGVPEQISGSKSGSSASLTITGLQAEDEGDYYCASWDDSLSAVVFGGGTHLTVLGGGGSGGGGSGGGGSEVQLVESGGGLVQPGGSLRLSCAASGFTFLNYAMSWVRQAPGKGLEWVSSNSGAGSTYYSDSVKGRFTISRDYAKNVVYLQLNSLKTEDTGMYYCAKGTNVGSWSSLHYWGQGTQVTVSS
notes: Camel scFv; i647-labelled for flow cytometry
B2: AS179732 scFv-mIgG2aFc (Fc fusion, not shown: a dimerising Fc or GST)
chain: B1 chain with Q1N, A2F, G3M, N27S, K53S, P56A, Q62R, I63F, A98G, V99A
notes: as for B1
B3: AS148691 scFv-mIgG2aFc (Fc fusion, not shown: a dimerising Fc or GST)
chain: DIQMTQSPSSLSASVGDRVTITCRASQSVSSAVAWYQQKPGKAPKLLIYSASSLYSGVPSRFSGSRSGTDFTLTISSLQPEDFATYYCQQYYGAYLITFGQGTKVEIKGGGGSGGGGSGGGGSEVQLVESGGGLVQPGGSLRLSCAASGFNLYYSSIHWVRQAPGKGLEWVASIYSSYGSTSYADSVKGRFTISADTSKNTAYLQMNSLRAEDTAVYYCARVGPGYYGIDYWGQGTLVTVSS
notes: i647-labelled for flow cytometry
B4: AS167830 sdAb-mIgG2aFc (Fc fusion, not shown: a dimerising Fc or GST)
chain: QVKLVESGGGSVQAGGSLRLSCAASRSSEYMNRRFCMGWFRQASGKEREGVAVVYIGGGRTYYADSVKGRFTISQDNAKNTLYLQMNNLKPEDTAMYYCTADVDPYESSWSRDLGYWGQGTQVTVSS
notes: as for B3
B5: AS170036 VL1VH1 scFv-mIgG2aFc (Fc fusion, not shown: a dimerising Fc or GST)
chain: QSALTQPRSVSGSPGQSVTISCAGTSSDVGSENYVSWYQQHPGKAPKLMIYQVNKRASGVPDRFSGSKSGNTASLTISGLQAEDEADYYCASYRSSDHNIVFGGGTKLTVLGGGGSGGGGSGGGGSEVQLVESGGGLVQPGGSLRLSCAASGFTFSSYAMSWVRQAPGKGLEWVSTINSGTGSPYYADSVKGRFTISRDNSKNTLYLQMNSLRAEDTAVYYCAKNFFDGSWFLGPPAMDYWGQGTLVTVSS
notes: Humanized

In one test the target is T1, BRCA2 peptide loaded T2 cells (human).
T1 construct: whole, on cells; also called BRCA2/T2
Description: flow cytometry, peptide-loaded T2 cells. Background: A flow cytometer gives signals particle by particle.
For the molecule B1, the binding result is reported as “no binding (tested: 30 or 50 nM)”.

As for B2, the binding result is “no binding (tested: 30 or 50 nM)”.

Turning to B3, the binding result is recorded as “no binding (tested: 30 or 50 nM)”.

In the case of B4, the binding result is “no binding (tested: 30 or 50 nM)”.

As for B5, the binding result was “no binding (tested: 30 or 50 nM)”.

The next test has as its target T2, OR1I1 peptide loaded T2 cells (human, UniProt P61769 21-119).
T2 construct: whole, on cells; also called OR1I1/T2
Description: flow cytometry, peptide-loaded T2 cells.
For the molecule B1, the binding result is “no binding (tested: 30 or 50 nM)”.

B2: the binding result was “no binding (tested: 30 or 50 nM)”.

In the case of B3, the binding result is listed as “no binding (tested: 30 or 50 nM)”.

As to B4, the binding result is “no binding (tested: 30 or 50 nM)”.

On to B5, for which the binding result is reported as “no binding (tested: 30 or 50 nM)”.

Another test deals with T3, RP1 peptide loaded T2 cells (human, UniProt P61769 21-119).
T3 construct: whole, on cells; also called RP1/T2
Briefly: flow cytometry, peptide-loaded T2 cells.
B1: the binding result is “no binding (tested: 30 or 50 nM)”.

With B2, the binding result is listed as “no binding (tested: 30 or 50 nM)”.

On to B3, for which the binding result is given as “no binding (tested: 30 or 50 nM)”.

Turning to B4, the binding result was “no binding (tested: 30 or 50 nM)”.

Regarding B5, the binding result is reported as “no binding (tested: 30 or 50 nM)”.

For a further test, the target named is T4, CDC14A peptide loaded T2 cells (human, UniProt P61769 21-119).
T4 construct: whole, on cells; also called CDC14A/T2
Briefly: flow cytometry, peptide-loaded T2 cells.
On to B1, for which the binding result was “no binding (tested: 30 or 50 nM)”.

Take B2: the binding result is given as “no binding (tested: 30 or 50 nM)”.

B3: the binding result is reported as “no binding (tested: 30 or 50 nM)”.

In the case of B4, the binding result is reported as “no binding (tested: 30 or 50 nM)”.

As for B5, the binding result is on record as “no binding (tested: 30 or 50 nM)”.

Another test addresses T5, NR2E1 peptide loaded T2 cells (human, UniProt P61769 21-119).
T5 construct: whole, on cells; also called NR2E1/T2
Description: flow cytometry, peptide-loaded T2 cells.
As for B1, the binding result is recorded as “no binding (tested: 30 or 50 nM)”.

Take B2: the binding result is “no binding (tested: 30 or 50 nM)”.

On to B3, for which the binding result was “no binding (tested: 30 or 50 nM)”.

Turning to B4, the binding result is recorded as “no binding (tested: 30 or 50 nM)”.

As for B5, the binding result was “no binding (tested: 30 or 50 nM)”.

A further test has as its target T6, ATG9A peptide loaded T2 cells (human, UniProt P61769 21-119).
T6 construct: whole, on cells; also called ATG9A/T2
Description: flow cytometry, peptide-loaded T2 cells.
As for B1, the binding result is recorded as “no binding (tested: 30 or 50 nM)”.

For B2, the binding result is reported as “no binding (tested: 30 or 50 nM)”.

For the molecule B3, the binding result is “no binding (tested: 30 or 50 nM)”.

As for B4, the binding result is given as “no binding (tested: 30 or 50 nM)”.

Take B5: the binding result is recorded as “no binding (tested: 30 or 50 nM)”.

The next test has as its target T7, ARNTL peptide loaded T2 cells (human, UniProt P61769 21-119).
T7 construct: whole, on cells; also called ARNTL/T2
Description: flow cytometry, peptide-loaded T2 cells.
Take B1: the binding result is recorded as “no binding (tested: 30 or 50 nM)”.

For B2, the binding result was “no binding (tested: 30 or 50 nM)”.

As for B3, the binding result is listed as “no binding (tested: 30 or 50 nM)”.

Turning to B4, the binding result was “no binding (tested: 30 or 50 nM)”.

On to B5, for which the binding result is listed as “no binding (tested: 30 or 50 nM)”.

For the next test, the target named is T8, OR6C1 peptide loaded T2 cells (human, UniProt P61769 21-119).
T8 construct: whole, on cells; also called OR6C1/T2
Briefly: flow cytometry, peptide-loaded T2 cells.
On to B1, for which the binding result was “no binding (tested: 30 or 50 nM)”.

For the molecule B2, the binding result is “no binding (tested: 30 or 50 nM)”.

As for B3, the binding result is “no binding (tested: 30 or 50 nM)”.

As for B4, the binding result is “no binding (tested: 30 or 50 nM)”.

For the molecule B5, the binding result was “no binding (tested: 30 or 50 nM)”.

In a further test the target is T9, PTP4A1 peptide loaded T2 cells (human, UniProt P61769 21-119).
T9 construct: whole, on cells; also called PTP4A1-pulsed T2 cells
Description: flow cytometry, peptide-loaded T2 cells.
As to B1, the binding result is “no binding (tested: 30 or 50 nM)”.

B2: the binding result is on record as “no binding (tested: 30 or 50 nM)”.

As to B3, the binding result is reported as “no binding (tested: 30 or 50 nM)”.

As to B4, the binding result is on record as “no binding (tested: 30 or 50 nM)”.

Consider B5, for which the binding result is recorded as “no binding (tested: 30 or 50 nM)”.

The target of a further test is T10, OR51B6 peptide loaded T2 cells (human, UniProt P61769 21-119).
T10 construct: whole, on cells; also called OR51B6/T2
Description: flow cytometry, peptide-loaded T2 cells.
As for B1, the binding result is on record as “no binding (tested: 30 or 50 nM)”.

Consider B2, for which the binding result is on record as “no binding (tested: 30 or 50 nM)”.

With B3, the binding result was “no binding (tested: 30 or 50 nM)”.

Consider B4, for which the binding result is “no binding (tested: 30 or 50 nM)”.

On to B5, for which the binding result is reported as “no binding (tested: 30 or 50 nM)”.

The next test deals with T11, ZNF566 peptide loaded T2 cells (human, UniProt P61769 21-119).
T11 construct: whole, on cells; also called ZNF566/T2
Description: flow cytometry, peptide-loaded T2 cells.
Take B1: the binding result is recorded as “no binding (tested: 30 or 50 nM)”.

B2: the binding result is recorded as “no binding (tested: 30 or 50 nM)”.

As for B3, the binding result was “no binding (tested: 30 or 50 nM)”.

With B4, the binding result is on record as “no binding (tested: 30 or 50 nM)”.

With B5, the binding result is given as “no binding (tested: 30 or 50 nM)”.

A further test addresses T12, RCL1 peptide loaded T2 cells (human).
T12 construct: whole, on cells; also called RCL1/T2
Description: flow cytometry, peptide-loaded T2 cells.
As for B1, the binding result is listed as “no binding (tested: 30 or 50 nM)”.

B2: the binding result is given as “no binding (tested: 30 or 50 nM)”.

For the molecule B3, the binding result is given as “no binding (tested: 30 or 50 nM)”.

With B4, the binding result was “no binding (tested: 30 or 50 nM)”.

Regarding B5, the binding result was “no binding (tested: 30 or 50 nM)”.

In the next test the target is T13, AFP158/HLA-A*02:01 complex (human).
T13 construct: biotinylated on the BSP by BirA for ELISA and panning; also called biotinylated AFP158/HLA-A*02:01 complex; Bio-AFP158
Briefly: SPR, scFv-mIgG2aFc from supernatant captured, complex as analyte.
Description: (§1) The binding affinity between selected antibodies and AFP158/HLA-A*02:01 complex was determined by surface plasmon resonance (SPR) on a BIAcore T200 instrument (GE Healthcare). The experiment was carried out as follows. The purified sdAb/scFv-mIgG2aFc protein were captured through mIgG2a-Fc onto the sensorchip. […] On-rate (kₐ) and off-rate (kd) were calculated based on association and dissociation curve, and were used to estimate the equilibrium dissociation constant (KD).
(§2) Humanized heavy chains and light chains were combined, and used to produce a series of humanized antibodies. These antibodies were synthesized as scFv-mIgG2aFc and transiently produced using HEK293 cells. The antibodies in the supernatant were subjected to SPR affinity assessment.
Turning to B1, the Kd (as a rule, the concentration at which binding is half-saturated) worked out at 28 nM; the koff (in general, the first-order rate constant of dissociation) turned out to be 0.0041 s⁻¹; the kon (usually a measure of how fast the partners come together) was determined as 150000 M⁻¹ s⁻¹.

For the next test, the target named is T13, AFP158/HLA-A*02:01 complex. The description is as above. The source holds these as a separate data set.
Description: as §1, §2
In turn, B2 showed a Kd of 47 nM, a koff of 0.0075 s⁻¹ and a kon of 160000 M⁻¹ s⁻¹.

A further test shares this target. Briefly: SPR, antibody captured via mIgG2a-Fc, complex as analyte.
Description: as §1
With B1, the Kd stood at 39 nM, the koff turned out to be 0.0042 s⁻¹ and the kon came out at 110000 M⁻¹ s⁻¹.

B2 came in with a Kd of 67 nM, a koff of 0.0086 s⁻¹ and a kon of 130000 M⁻¹ s⁻¹.

B3 had a Kd of 71 nM, a koff of 0.005 s⁻¹ and a kon of 71000 M⁻¹ s⁻¹.

B4 showed a Kd of 260 nM, an off-rate constant (koff) of 0.07 s⁻¹ and a kon of 270000 M⁻¹ s⁻¹.

The target is the same in a further test. Briefly: SPR, scFv-mIgG2aFc from supernatant captured, complex as analyte. This is another data set of the same source. A general note: In SPR one partner is held on a chip, and binding of the other changes the refractive index at the surface.
Description: as §1, §2
As to B5, binding was characterised by a dissociation constant (Kd) of 360 nM, the koff turned out to be 0.062 s⁻¹ and the kon came out at 170000 M⁻¹ s⁻¹.
